Data: patent US20140186370A1 (Kyowa Kirin, published 2014)

Molecular target: T1, H3 protein ectodomain from vaccinia virus strain Lister with C-terminal 6-HIS tag, expressed from pET21a(+) (vaccinia virus strain Lister, UniProt P20497 1-269)
T1 chain: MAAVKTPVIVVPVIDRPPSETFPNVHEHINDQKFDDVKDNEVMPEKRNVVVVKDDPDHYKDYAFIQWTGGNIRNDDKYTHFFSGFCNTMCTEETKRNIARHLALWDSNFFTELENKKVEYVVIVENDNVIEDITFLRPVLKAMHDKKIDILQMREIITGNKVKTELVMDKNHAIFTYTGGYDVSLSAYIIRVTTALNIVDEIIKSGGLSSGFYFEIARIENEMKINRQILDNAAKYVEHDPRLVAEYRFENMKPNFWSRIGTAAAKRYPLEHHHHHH
Assay: Western blot on E. coli lysates (FIG. 12A)

B1: 130D67 human anti-H3L monoclonal antibody (antibody, V domains shown)
VH: EVQLVESGGGLVQPGRSLRLSCAASGFTFDDYAIHWVRQAPGKGLEWVSGISWNGRSIGYADSVKGRFTISRDNAKNSLYLQMNSLRAEDTALYYCAKDIGFYGSGSLDYWGQGTLVTVSS
VL: not shown
binding result: binds
